Data on 3 molecules can be found in US20150175666A1 (YEDA RESEARCH AND DEVELOPMENT, published 2015).

In experiment [1] the target is T1, NBD-labeled core peptide of the TCRα TMD (GLRILLLKV; SEQ ID NO: 14).
T1 construct: also called NBD-CP; CP
T1 peptide: {NBD}-GLRILLLKV
Briefly: NBD fluorescence of NBD-CP on PC:Chol LUVs, sequential doses of unlabeled peptide.

In experiment [2] the target is T2, TCR of MOG35-55-specific murine line T cells (mMOG35-55 T cells) (mouse, UniProt A2KF29). Description: cell-based or functional assay.
T2 sequence (A2KF29 whole entry): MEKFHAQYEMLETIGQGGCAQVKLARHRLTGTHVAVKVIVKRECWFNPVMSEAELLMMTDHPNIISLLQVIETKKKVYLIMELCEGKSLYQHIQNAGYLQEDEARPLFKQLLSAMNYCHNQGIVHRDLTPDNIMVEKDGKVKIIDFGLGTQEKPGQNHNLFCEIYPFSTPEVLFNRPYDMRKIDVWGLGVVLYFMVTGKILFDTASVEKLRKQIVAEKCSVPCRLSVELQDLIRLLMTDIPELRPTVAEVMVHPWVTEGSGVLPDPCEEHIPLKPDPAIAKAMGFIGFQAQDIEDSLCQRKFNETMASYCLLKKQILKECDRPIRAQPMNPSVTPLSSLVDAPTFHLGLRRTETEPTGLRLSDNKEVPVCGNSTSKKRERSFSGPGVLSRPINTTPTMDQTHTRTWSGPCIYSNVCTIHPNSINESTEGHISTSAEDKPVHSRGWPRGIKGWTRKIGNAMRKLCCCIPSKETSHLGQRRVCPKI
In experiment [3] the target is T2, TCR of MOG35-55-specific murine line T …. Briefly: cell-based or functional assay. The source holds these as a separate data set.

Ends that are not written are not given here. * marks the point of attachment. NBD = O=[N+]([O-])c1ccc(*)c2nonc12

B1: control mutant peptide (SNKSLEQIWNHTTWMGWG, SEQ ID NO: 10), unlabeled (peptide)
peptide: SNKSLEQIWNHTTWMGWG
notes: pep 6 with the conserved acidic residues (Glu and Asp) mutated to Gly
Regarding B1, the binding result in experiment [1] is “binds”.

B2: control mutant (W/G) peptide (SNKSLEQIGNHTTGMEGD, SEQ ID NO: 9), unlabeled (peptide)
peptide: SNKSLEQIGNHTTGMEGD
notes: Unlabeled form used in the NBD-CP fluorescence experiment
As for B2, the binding result in experiment [1] is on record as “binds”.

In the case of SNKSLEQIWNHTTWMEWD [pep 6 (SNKSLEQIWNHTTWMEWD), gp41 derived peptide, unlabeled], in experiment [2], the “inhibitory concentration at 50% proliferation (IC50), MOG35-55-specific T-cell proliferation” value worked out at 1000 nM. Besides, the “IC50 (µM), inhibition of MOG35-55-specific T-cell proliferation” value in experiment [3] came to 0.55 µM. In experiment [1], the binding result is recorded as “binds”.
